# Experimental data taken from paper PMC6535971 (ACS Central Science, 2019).
# Residue numbers refer to the chain shown, from its start. Where no end group is shown, it is not given here.
# T1: MjYcaO (Methanocaldococcus jannaschii, UniProt Q58494)
# T1 sequence (Q58494 1-385): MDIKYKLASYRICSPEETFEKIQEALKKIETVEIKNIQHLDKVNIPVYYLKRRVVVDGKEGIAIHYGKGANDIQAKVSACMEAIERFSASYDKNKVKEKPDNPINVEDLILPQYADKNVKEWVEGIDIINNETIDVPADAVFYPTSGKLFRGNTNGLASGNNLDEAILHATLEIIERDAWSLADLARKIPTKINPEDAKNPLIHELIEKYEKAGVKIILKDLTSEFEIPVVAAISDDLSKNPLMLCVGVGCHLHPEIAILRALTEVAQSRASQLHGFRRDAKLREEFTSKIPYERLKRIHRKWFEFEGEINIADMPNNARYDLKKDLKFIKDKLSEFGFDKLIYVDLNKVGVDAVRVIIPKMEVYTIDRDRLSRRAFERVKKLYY
# T2: Methanocaldococcus jannaschii YcaO (MjYcaO), wild type (Methanocaldococcus jannaschii, UniProt Q58494 1-385)
# T2 sequence: T1 sequence (Q58494 1-385)
# T3: MjYcaO Y66G variant (Methanocaldococcus jannaschii, UniProt Q58494 1-385, Y66G)
# T3 sequence: T1 sequence (Q58494 1-385) with Y66G
# T4: MjYcaO Y66F variant (Methanocaldococcus jannaschii, UniProt Q58494 1-385, Y66F)
# T4 sequence: T1 sequence (Q58494 1-385) with Y66F
# T5: MjYcaO W180F variant (Methanocaldococcus jannaschii, UniProt Q58494 1-385, W180F)
# T5 sequence: T1 sequence (Q58494 1-385) with W180F
# T6: MjYcaO W180V variant (Methanocaldococcus jannaschii, UniProt Q58494 1-385, W180V)
# T6 sequence: T1 sequence (Q58494 1-385) with W180V
# T7: MjYcaO Y66A variant (Methanocaldococcus jannaschii, UniProt Q58494 1-385, Y66A)
# T7 sequence: T1 sequence (Q58494 1-385) with Y66A
# T8: MjYcaO Y66L variant (Methanocaldococcus jannaschii, UniProt Q58494 1-385, Y66L)
# T8 sequence: T1 sequence (Q58494 1-385) with Y66L
# T9: MjYcaO W303A variant (Methanocaldococcus jannaschii, UniProt Q58494 1-385, W303A)
# T9 sequence: T1 sequence (Q58494 1-385) with W303A
# B1: MjMcrA 11-mer peptide RLGFYGYDLQD (peptide)
# peptide: RLGFYGYDLQD
# B2: FITC-labeled 11-mer MjMcrA peptide RLGFYGYDLQD (without the double Gly linker) (peptide)
# peptide: RLGFYGYDLQD
# modifications: not fully specified (N-terminus); also: FITC label (site not given here)
# B3: FITC-labeled 13-mer MjMcrA peptide GG-RLGFYGYDLQD (peptide)
# peptide: GGRLGFYGYDLQD
# modifications: not fully specified (N-terminus); also: FITC label (site not given here)
# Legend:
# [1] = target: Methanocaldococcus jannaschii YcaO (MjYcaO), wild type (Methanocaldococcus jannaschii) (UniProt Q58494); experiment: fluorescence polarisation
# MjYcaO [2] = target: T1, MjYcaO; experiment: Competition FP binding assay; conditions: competitive FP, MBP-tagged 11-mer variant against FITC-labeled 11-mer peptide
# MkYcaO = experiment: Cyclodehydration reaction, MALDI-TOF-MS; assay type: biochemical, Methanopyrus kandleri; conditions: pH 7.0 with additional phosphate
# MjYcaO [3] = target: T1, MjYcaO; experiment: Cyclodehydration reaction, MALDI-TOF-MS; assay type: biochemical; conditions: wild-type MjYcaO and ATP at pH 7.5, no added anion
# [4] = target: T2, Methanocaldococcus jannaschii YcaO …; experiment: crystal structure
# [5] = target: T2, Methanocaldococcus jannaschii YcaO …; experiment: fluorescence polarisation
# MjYcaO Y66G variant = target: T3, MjYcaO Y66G variant; experiment: fluorescence polarisation
# MjYcaO Y66F variant = target: T4, MjYcaO Y66F variant; experiment: fluorescence polarisation
# MjYcaO W180F variant = target: T5, MjYcaO W180F variant; experiment: fluorescence polarisation
# MjYcaO W180V variant = target: T6, MjYcaO W180V variant; experiment: fluorescence polarisation
# MjYcaO Y66A variant = target: T7, MjYcaO Y66A variant; experiment: fluorescence polarisation
# MjYcaO Y66L variant = target: T8, MjYcaO Y66L variant; experiment: fluorescence polarisation
# MjYcaO W303A variant = target: T9, MjYcaO W303A variant; experiment: fluorescence polarisation
# [6] = target: T2, Methanocaldococcus jannaschii YcaO …; experiment: fluorescence polarisation; remark: listed apart in the source
molecule,measurement,setting,value
MjMcrA Y(+1)C 11-mer peptide …,fold increase in Ki against the wild-type peptide,[1],2 fold
RLGFYGCDLQD [Y(+1)C 11-mer],increase in Ki relative to wild-type,MjYcaO [2],2 fold
same,cyclodehydration,MkYcaO,enzyme-dependent conversion to the dehydrated species
same,cyclodehydration (change of peptide mass),MjYcaO [3],almost no change
"MBP-tagged MjMcrA peptide, D(+2)A variant",fold increase in Ki against the wild-type peptide,[1],4 fold
MjMcrA Y(+1)S 11-mer peptide,fold increase in Ki against the wild-type peptide,[1],2 fold
"MBP-tagged MjMcrA peptide, Leu(-4) to Ala",fold increase in Ki against the wild-type peptide,[1],> 6 fold
"MBP-tagged MjMcrA peptide, F(-2)A variant",fold increase in Ki against the wild-type peptide,[1],3 fold
"MBP-tagged MjMcrA peptide, Gly(-3) to Ala",fold increase in Ki against the wild-type peptide,[1],> 6 fold
B1,binding result,[4],binds
B2,binding result,[5],binds
B3,binding result,MjYcaO Y66G variant,binds
same,binding result,MjYcaO Y66F variant,binds
same,binding result,MjYcaO W180F variant,binds
same,binding result,MjYcaO W180V variant,binds
same,binding result,MjYcaO Y66A variant,binds
same,binding result,MjYcaO Y66L variant,binds
same,binding result,MjYcaO W303A variant,binds
same,binding result,[6],binds
